Assay results: patent US20250171535A1, “COMPOSITIONS AND METHODS FOR DEPLETION OF DISEASED HEMATOPOIETIC STEM CELLS” (Jasper Therapeutics, Inc., priority 2022, published 2025)

Legend:
[1] = Clinical study: safety and tolerability in higher risk MDS or AML patients; format: in vivo, human; details: 0.6 mg/kg intravenously
Description: (§1) Nine patients having either higher risk MDS or AML were treated with a single dose of 0.6 mg/kg JSP191 administered intravenously.

[2] = test system: diseased HSC cells (CD34+CD45RA-CD117+ HSCs); test: Clinical study: depletion of diseased stem and progenitor cells in higher risk MDS or AML patients; format: in vivo, human; details: nine higher risk MDS or AML patients; single dose 0.6 mg/kg intravenously; 10-14 days post-treatment
Description: FIG. 2 is a bar graph of the percent (%) depletion of CD34+CD45RA-CD117+ cells in nine myelodysplastic syndrome (MDS) and acute myeloid leukemia (AML) patients treated with a single dose of anti-c-kit antibody, measured 10-14 days post-treatment.
as §1

## JSP191: aglycosylated IgG1 humanized anti-c-kit (CD117) antibody, humanized form of murine SR1; heavy chain SEQ ID NO: 2, light chain SEQ ID NO: 3
[1]
  JSP191-related infusion reactions: No significant JSP191-related infusion reactions were observed
  adverse events: no significant adverse events were observed
[1]; ongoing clinical trial
  safety and tolerability: safe and well-tolerated
[2]
  depletion of diseased HSC cells (CD34+CD45RA-CD117+ HSCs): 30-95%
